B1: target 1 G12A,A18C (mixed)
RNA 1: CACCCGUGCAAAAAUGCAGGGGUCUAAAACUGAGCGGAUAACCUCUCUAUGG
RNA 2: GGGAAUGGAUCCACAUCUACGAAUUCGUACCAUCGAGAGAUUAUCCGCUCACCGAGAUCGGAAGAGCACACGU
B2: target 1 insA 3' of 12,insA 3' of 2 (mixed)
RNA 1: B1 RNA 1
RNA 2: GGGAAUGGAUCCACAUCUACGAAUUCGUACCAUAGAGAGGAUUAUCCGCUCAACCGAGAUCGGAAGAGCACACGU
B3: target 1 insA 3' of 12,insC 3' of 1 (mixed)
RNA 1: B1 RNA 1
RNA 2: B2 RNA 2 with A53C
B4: target 1 insU 3' of 14,insA 3' of 6 (mixed)
RNA 1: B1 RNA 1
RNA 2: B2 RNA 2 with G39U, A41G, G48A, C49G, U50C, C51U, A52C
B5: target 1 A18C,C22U (mixed)
RNA 1: B1 RNA 1
RNA 2: B1 RNA 2 with C30U, A40G
B6: target 1 C2G,G12A (mixed)
RNA 1: B1 RNA 1
RNA 2: B1 RNA 2 with C34A, C50G
B7: target 1 U11C,U19C (mixed)
RNA 1: B1 RNA 1
RNA 2: B1 RNA 2 with U33C, C34A, A40G, U41C
B8: target 1 C2A,C22G (mixed)
RNA 1: B1 RNA 1
RNA 2: B1 RNA 2 with C30G, C34A, A40G, C50A
B9: target 1 U3A,A14C (mixed)
RNA 1: B1 RNA 1
RNA 2: B1 RNA 2 with C34A, A38C, A40G, U49A
B10: target 1 insU 3' of 9,insA 3' of 5 (mixed)
RNA 1: B1 RNA 1
RNA 2: B2 RNA 2 with A41U, U43A, A44U, C49A, U50C, C51U, A52C
B11: target 1 insG 3' of 22,insA 3' of 10 (mixed)
RNA 1: B1 RNA 1
RNA 2: GGGAAUGGAUCCACAUCUACGAAUUCGUACGCAUAGAGAGGUUAAUCCGCUCACCGAGAUCGGAAGAGCACACGU
B12: target 1 G5C,A20U (mixed)
RNA 1: B1 RNA 1
RNA 2: B1 RNA 2 with A32U, C34A, A40G, G47C
B13: target 1 insC 3' of 15,insC 3' of 13 (mixed)
RNA 1: B1 RNA 1
RNA 2: GGGAAUGGAUCCACAUCUACGAAUUCGUACCAUAGAGCAGCGUUAUCCGCUCACCGAGAUCGGAAGAGCACACGU
B14: target 1 insU 3' of 15,insU 3' of 4 (mixed)
RNA 1: B1 RNA 1
RNA 2: B2 RNA 2 with A38U, G39A, A41G, C51U, A52C
B15: target 1 insG 3' of 22,insG 3' of 16 (mixed)
RNA 1: B1 RNA 1
RNA 2: B11 RNA 2 with A39G, G40A, U42G, A44U
B16: target 1 C6A,A14G (mixed)
RNA 1: B1 RNA 1
RNA 2: B1 RNA 2 with C34A, A38G, A40G, C46A
B17: target 1 insA 3' of 12,insG 3' of 1 (mixed)
RNA 1: B1 RNA 1
RNA 2: B2 RNA 2 with A53G
B18: target 1 insU 3' of 17,insU 3' of 6 (mixed)
RNA 1: B1 RNA 1
RNA 2: B13 RNA 2 with A36U, G37A, C38G, C41G, G42U, U44A, A45U, U46C, C48U
B19: target 1 insU 3' of 4,insG 3' of 1 (mixed)
RNA 1: B1 RNA 1
RNA 2: B2 RNA 2 with A41U, U43A, A44U, U45C, C47G, G48C, C49U, A53G
B20: target 1 insG 3' of 7,insU 3' of 7 (mixed)
RNA 1: B1 RNA 1
RNA 2: B13 RNA 2 with C38A, A39G, C41U, G42U, U43A, A45C, U46G, C47U
B21: target 1 insC 3' of 22,insG 3' of 22 (mixed)
RNA 1: B1 RNA 1
RNA 2: B13 RNA 2 with A32G, U33C, G35U, C38A, A39G, G40A, C41G
B22: target 1 insA 3' of 3,insA 3' of 2 (mixed)
RNA 1: B1 RNA 1
RNA 2: B2 RNA 2 with A41U, U43A, A44U, U45C, C47G, G48C, C49U, U50A
B23: target 1 insU 3' of 6,insG 3' of 2 (mixed)
RNA 1: B1 RNA 1
RNA 2: B2 RNA 2 with A41U, U43A, A44U, U45C, C47U, A52G
B24: target 1 insA 3' of 13,insC 3' of 13 (mixed)
RNA 1: B1 RNA 1
RNA 2: B13 RNA 2 with C38A, A39G, G40A
B25: target 1 insC 3' of 18,insG 3' of 8 (mixed)
RNA 1: B1 RNA 1
RNA 2: B11 RNA 2 with G31C, C32A, A33U, U34A, A35C, A45U, U46G
B26: target 1 A9U,A18U (mixed)
RNA 1: B1 RNA 1
RNA 2: B1 RNA 2 with C34U, A40G, A43U
B27: target 1 C2G,C21U (mixed)
RNA 1: B1 RNA 1
RNA 2: B1 RNA 2 with C31U, C34A, A40G, C50G
B28: target 1 insG 3' of 22,insA 3' of 22 (mixed)
RNA 1: B1 RNA 1
RNA 2: B13 RNA 2 with C31G, U33C, G35U, C38A, A39G, G40A, C41G
B29: target 1 U3G,G13A (mixed)
RNA 1: B1 RNA 1
RNA 2: B1 RNA 2 with C34A, G39A, A40G, U49G
B30: target 1 insC 3' of 5,insU 3' of 2 (mixed)
RNA 1: B1 RNA 1
RNA 2: B2 RNA 2 with A41U, U43A, A44U, U45C, C47G, G48C, A52U
B31: target 1 insA 3' of 11,insA 3' of 6 (mixed)
RNA 1: B1 RNA 1
RNA 2: B2 RNA 2 with A41U, U42A, G48A, C49G, U50C, C51U, A52C

Numbering of substitutions follows the chain as printed. Names and notes keep the numbering of the source.

This is an account of results in publication PMC10786891, “Massively parallel profiling of RNA-targeting CRISPR-Cas13d”.

This series has as its target T1, EsCas13d, nuclease-dead (Eubacterium siraeum, UniProt B0MS50, R295A;H300A;R849A;H854A).
T1 sequence: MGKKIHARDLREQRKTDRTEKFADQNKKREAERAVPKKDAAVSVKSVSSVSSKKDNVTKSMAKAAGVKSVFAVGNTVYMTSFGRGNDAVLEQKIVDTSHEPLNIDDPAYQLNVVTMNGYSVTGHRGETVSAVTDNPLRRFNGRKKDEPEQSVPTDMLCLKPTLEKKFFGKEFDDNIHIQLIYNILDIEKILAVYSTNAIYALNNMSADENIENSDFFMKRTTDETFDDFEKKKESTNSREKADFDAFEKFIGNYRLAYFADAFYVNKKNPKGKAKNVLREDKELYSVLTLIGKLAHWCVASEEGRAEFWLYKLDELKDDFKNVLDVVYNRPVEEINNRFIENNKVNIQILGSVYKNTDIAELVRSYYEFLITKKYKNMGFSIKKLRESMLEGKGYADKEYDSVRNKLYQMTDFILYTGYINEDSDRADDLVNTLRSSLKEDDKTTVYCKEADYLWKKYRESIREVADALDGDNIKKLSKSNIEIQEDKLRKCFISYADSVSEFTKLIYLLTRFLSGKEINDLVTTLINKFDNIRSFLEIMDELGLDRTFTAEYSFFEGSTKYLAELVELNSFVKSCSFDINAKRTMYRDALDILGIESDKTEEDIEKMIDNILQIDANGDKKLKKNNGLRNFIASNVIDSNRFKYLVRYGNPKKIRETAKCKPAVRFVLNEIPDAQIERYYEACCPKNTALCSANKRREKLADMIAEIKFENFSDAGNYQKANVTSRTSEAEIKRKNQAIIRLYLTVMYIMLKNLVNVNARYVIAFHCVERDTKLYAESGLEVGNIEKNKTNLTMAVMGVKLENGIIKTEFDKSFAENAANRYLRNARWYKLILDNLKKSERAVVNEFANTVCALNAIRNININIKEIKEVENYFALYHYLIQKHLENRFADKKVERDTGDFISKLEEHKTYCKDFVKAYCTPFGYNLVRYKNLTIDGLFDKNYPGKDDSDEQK
Kind of series: crRNA (strand 1, pre-loaded); Mg2+; 40 mM Tris-HCl pH 7.5, 150 mM NaCl, 6 mM MgCl2, 1 mM DTT, 0.1% Tween-20, 0.2 mg/ml BSA; 25 C; 10 min per concentration, then washed. Particulars: tags: His6-TwinStrep-SUMO cleaved; N-terminal SNAP kept (SNAP-Surface 488); label: 3' end held by stalled T7 RNA polymerase.
On to B1, for which the Kd (commonly the free concentration of one partner at which half of the binding sites on the other are occupied at equilibrium, for simple one-to-one binding) came to 51 ± 7 nM.

As to B2, the affinity, expressed as Kd, was 34.2 ± 3.1 nM. The Kd values of the last two molecules are within 1.5-fold of each other.

B3 showed a Kd of 27.4 ± 2.6 nM.

In turn, B4 returned a Kd of 80 ± 32 nM.

For the molecule B5, the Kd turned out to be 59 ± 7 nM.

As for B6, binding was characterised by a dissociation constant (Kd) of 3.51 ± 0.18 nM.

The molecule B7 gave a Kd of around 80 nM.

Take B8: the Kd is around 80 nM.

In the case of B9, binding was characterised by a dissociation constant (Kd) of 20.8 ± 1 nM.

Consider B10, for which the Kd came to 6.6 ± 0.8 nM.

Consider B11, for which the Kd is 25 ± 1.5 nM.

In turn, B12 displayed a Kd of 63 ± 12 nM. Against the preceding molecule, the Kd is about 2.5-fold higher.

In turn, B13 had a Kd of 34 ± 4 nM. This Kd lies about 1.9-fold lower than the previous one.

On to B14, for which the Kd came to 9.6 ± 0.6 nM.

Take B15: the Kd was 57 ± 8 nM.

B16 showed a dissociation constant Kd of 12.6 ± 0.9 nM.

In turn, B17 showed a dissociation constant Kd of 28.9 ± 3.1 nM.

B18: the Kd was 29.7 ± 2.9 nM.

In turn, B19 gave a Kd of 6.8 ± 0.4 nM.

For B20, the Kd was 9.26 ± 0.34 nM.

Regarding B21, the Kd stood at 12.6 ± 0.6 nM.

For the molecule B22, the affinity, expressed as Kd, was 7.1 ± 0.4 nM.

As to B23, the Kd turned out to be 15.3 ± 1 nM.

Molecule B24 had a Kd of 23 ± 5 nM.

B25 showed an equilibrium dissociation constant (Kd) of 53.4 ± 3.3 nM.

As for B26, the Kd was 44.9 ± 3.5 nM.

B27: the dissociation constant Kd is 11.7 ± 1.6 nM.

As for B28, the dissociation constant (Kd) was determined as 30.8 ± 2.9 nM.

In the case of B29, the dissociation constant (Kd) was determined as 5.4 ± 0.8 nM.

Molecule B30 gave a Kd of 15.2 ± 0.6 nM.

B31 displayed a Kd of 13.2 ± 1 nM.
